Article PMC6781908

Columns and labels:
[1] = GFP fluorescence in D-type motor axons; settings: glycan lost; control: wild-type DDR-2::GFP
[2] = anti-GFP IP, anti-phosphotyrosine blot (autophosphorylation) from worms; settings: glycan lost; control: wild-type DDR-2::GFP

B1: DDR-2: N141A (protein)
parent chain: MKLLLYLFGVTFHSNTVVALELRECSHQLGMSNRKIRDEQISASSSFDLQSTGPQHARAHQESGSGAWCPKNQINSLSKEWLQISFSVDTVITSVETQGRFDDGRGMEYATAFKIQYWRPSLNAWASYKDDFELETIPANNDTEHAIRRHLDRAIIARRIRIVPVSNSTRTVCMRVEVFGCPFDDSLVFYNVDQGDLQSGISYHDFSYDGNLANSPHLTGGIGKLYDGEVGKNNVFVNHHKWVGWRRKRNGNVKLAFEFSELRNISGILIHTSNEFKKSAKAFSSATVLFSINGKDFSDTIVHFNNPEDTESEVPRWIRIPVNNRIAKVAKIRLNFGTDSDWLFISEVNFESNHTNIELLNDDVVIPDSVSYFSVTEHDDGTSMFAFIIFFFMFLIVAVIILTVLYRKREYRVKASSPSPNAKREILLTIDGNTIKHHVSPSTYQMARDNLQNALIEKMPMSPIISDYAEPDISVCSDVTANTPLLYGIDGPYDTQKRSNPLSSMVKYSDYGEVYCTTLPEIARDKLICVSRIGQGEFGEVDLCQLENRKVAVKKLHGISQADEFSFHREIRVLGSLKHPNVVEVVGVCTIQKPILCIMEYMENGDLKSYILKNPTIQTSQCISICTQLAAGLAYLESCNFVHRDIAARNCLVDGEGNVKIADFGMARSLYSQEYYKVEGKFVLPIRWMAWEALLLGKFSTASDVWGFGVTMWEIFSLCSEKPYSDMTDDDVVENLQSMSSTGSLKQVLSRPRMCPSKLYNEQILPCWNYESSRRPSFENVHLHLQSLVHTSPHIHF
- localisation_or_trafficking [1]: no change
- enzymatic_activity [2]: no change
